{
  "source": "patent US8889126B2",
  "about": "“Methods and compositions for treating neuropathies” (Washington University, priority 2004, dated 2014)",
  "key": {"[1]": {"test_system": "NAD generated after 1 hour at 37 deg", "experiment": "relative NMNAT enzymatic activity of affinity purified 6xHis-tagged proteins from HEK293T cells", "assay_type": "biochemical", "details": "affinity purified protein, normalized to protein concentration", "procedure": "NMNAT protein overexpression, affinity purification and enzymatic assay. HEK293T cells were transfected with an expression plasmid for each enzyme by using calcium phosphate precipitation. Three days later, cells were washed with PBS twice and then suspended in the buffer containing 50 mM Sodium Phosphate (pH8.0), and 300 mM NaCl (buffer A). Cells were then homogenized by SONIFIRE 450 (BRANSON) and supernatant was collected by centrifugation at 10,000 g for 10 min. […] Relative NMNAT enzymatic activity was measured by using affinity purified proteins as described before and subtracted the value obtained from mock transfected cells and normalized by the amount of recombinant protein determined by densitometry.\nNext we confirmed enzymatic activity of cytNMNAT1, NMNAT1 and its mutant cytNMNAT1 were purified from the cell lysate expressing either of proteins by using affinity gel. […] We expressed hexa-histidine tagged NMNAT3 or nucNMNAT3 in HEK293T cells and analyzed subcellular localization and its enzymatic activity. […] In these investigations, the amount of NAD generated after 1 hour at 37 deg was converted NADH, quantified and normalized to protein concentration. […] FIG. 7E presents a quantitative analysis of remaining neurite numbers at 12, 24, 48, and 72 hours after axotomy. […]"}, "DRG explant neurons": {"test_system": "DRG explant neurons", "experiment": "in vitro Wallerian degeneration assay: DRG explant cultures, axonal transection by removal of neuronal cell bodies", "assay_type": "cell-based, mouse", "details": "lentivirus-infected DRG neurons", "procedure": "To identify the mechanism of delayed axonal degeneration mediated by the Wld^s protein, we employed an in-vitro Wallerian degeneration model. Primary DRG explant neurons were infected with lentivirus expressing the appropriate proteins, and axons were injured by either removal of the neuronal cell body (transection) or growth in vincristine (toxic).\nMouse DRG explants from E12.5 embryos were cultured in the presence of 1 nM nerve growth factor. Non-neuronal cells were removed from the cultures by adding 5-fluorouracil to the culture medium. Transection of neurites was performed at 10-20 DIV using an 18-gauge needle to remove the neuronal cell bodies. Incubation with β-nicotinamide adenine dinucleotide (Sigma) or Sirtinol (Calbiochem) was performed using conditions indicated in the text or figures.\nLentiviral expression vectors were generated using HEK293T cells as described above. For confirmation of lentivirus-derived protein expression, HEK293T cells were infected with lentivirus and cells were lysed 3 days after infection. These lysates were analyzed by immunoblot to using anti-His tag monoclonal antibody (Qiagen) to detect expression of the respective hexahistidine-tagged proteins. Lentiviral infection of DRG neurons was performed by incubating ˜10^6-10^7 pfu/ml virus with the DRG explant for 24 h beginning 3-7 days prior to axonal transection. The infected neurons were examined under an inverted fluorescent microscope to insure detectable lentivirus-mediated transgene expression in >95% of neurons.\nQuantitative analysis of axonal degeneration was performed as previously described (Zhai, et al., Neuron 39:217-25, 2003). Briefly, the cultures were examined using phase contrast microscopy at the indicated times. Axons with a fragmented, non-refractile appearance were designated as “degenerated.” At each time point, at least 200 singly distinguishable axons were blindly scored from several randomly taken images of each culture. Each condition was tested in triplicate explants in each experiment. Results were obtained from 2-4 independent experiments for each condition. Statistical analysis was performed by Student's T test. For calculations of neurite-covered area, digitally captured images from quadruplicate samples of two independent experiments were analyzed using analysis 3.1 software (Soft Imaging System, Lakewood, Colo.).\nCell culture, in vitro axotomy, and quantification of axonal degeneration. Mouse DRG explants from E12.5 embryos were cultured in the DMEM containing 10% FCS and 1 nM nerve growth factor. Non-neuronal cells were removed from the cultures by adding 5-fluorouracil to the culture media. Transection of neurites was performed at 14-21 DIV using an 18-gauge needle to remove the neuronal cell bodies. Lentiviral expression vectors were generated. Lentiviral infection was performed 3-7 days prior to axonal transection for 24 hr. Quantitative analysis of neurite degeneration was performed."}},
  "data": [
    {"substance": "NMNAT3: murine nicotinamide mononucleotide adenylyltransferase3", "values": [
      {"measurement": "enzymatic activity (relative NMNAT activity)", "setting": "[1]", "result": "comparable enzymatic activity compared with NMNAT1"},
      {"measurement": "axonal degeneration after transection in neurons expressing the construct", "setting": "DRG explant neurons", "result": "same extent of delay in neurite degeneration as well as NMNAT1"}
    ]}
  ]
}
